Experimental data reported in the supplement of paper PMC9170038.

system: K4 kissing-loop RNA reporter; assay: apparent KD of K4 kissing-loop reporter; higher = weaker reporter binding; settings: Eterna round: R107; input ligand: arginine 13.2 mM
Description: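 RNA-MaP round R107: designed RNA switches with theophylline, tryptophan, arginine or FMN aptamers are transcribed on-chip within common flanks. They are titrated with a labelled K4 kissing-loop RNA reporter in RNA-MaP buffer (100 mM Tris pH 7.5, 80 mM KCl, 4 mM MgCl2), without ligand or with the indicated ligand. Median apparent KD per design.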
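Note: bound reporter read as fluorescence of individual clusters on recovered sequencing chips by microscopy, with normalized cluster intensities fitted with a binding model.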

Sequence | apparent KD of K4 kissing-loop reporter [nM]
AAUAUACAGGGAAGGAGCGCCGUCCAGUGAUGUUGGAGUUAAAUACCAGUGAUGUUGGUUAGGCAGGUAGGUCGCCCUAAAGUAU [Exclusion Arginine B Gf 2] | 82.7
CGUGAAGACCAGAGGUGAUGUAUAGUAUCGCGAGGACCGGUACGGCCGCCACUCGUGAAGAGAAAGGAGUGAUGUUCCGUAAUGG [C12] | 239
AAACGUCGGAAGUGAUGUUGAUGACGUAGUAAGGAUAUUGGACGCGCAAGAAGGUACUGGCAAACUAAGGACAUCCUGGAUAUUC [theeternabot_exclusion_KL_FMN_A_47] | 251
GCACGUACCCGAAGGAGCGUGCAAGAAUCGUAGUGAUGUUACGGAGAGUGUCACGCCGUCGCACAGGUAGGUCGCGGGUACGUGC | 80.3
UAGACCUACUCAGGAUAUCCGCAGUGAUGUUGCGGUUGGCCUGAGCGACAUGAAAAUCUUACUAAAGGAGAAGGGAGAGGGUUAC [Ratiteus] | 79.2
UAUAUAUGAUGUGAUACCAGUGAAGAGCCAGUGAUGUUGGUAGAACUGGUAUAUAAAUAACACCCUUGGCAGCACAAUCACGUAU [whbob_Ex_Theo_B_sa97] | 152
UUCAGGUGUUCGGCCGCCACUCCAGUGAUGUUGGAGUGGCUUCACAAGGGCCAGGACAAUGUAGGGAGGACCGGGAAUAUCGCAG [Atvebeance] | 117
UGGAGUUGACGAAAAGUCAACUCCUGAGAAGGAGCGGACGAAAGUCCAGGUAGGUCGCUCACUAGCAGUGAUGUUGCUACAUAAA [#OpenEnded 2] | 211
CACUUACGUAGUGAUGUUACGAUCUCUGAUACCAGACAACUCUAAGUCCCUUGGCAGCAGUCAUUUUGCUUAUAAUUUACUCAAA [JR_ExcTheophyA_Sub015] | 556
GGAUUGCCAGUGAUGUUGGCAUAAACUGAAGGAGCGCGUGAAAACGCAGGUAGGUCGCAGAACCUUGCCAACUGAUCGAAAGAUC [Ex Arginine A K4 29] | 138
GCGCGUCAUGUCAGCGGUGCCUAUGUCGAUACCAGCGCCGCAAGGCGCCCUUGGCAGCGACGCGCUGGAGUGAUGUUCCAGCGUG [#2 Exclusion - Theophylline A Attempt #11 (HarryS)] | 127
UGUAUCAUCUAAGGAUAUAUCAUGUGAUGCACCGAGUAUCGCAUCAAUUCUGAGUGAUGUUCAGGUAUAGAAGGUAGAUGAUGCA [FMN B SS t2] | 178
AAACAUCACUGGGAGUGAUGUUCUCAGUGACGAGGACCGGUACGGCCGCCACUCGCGAGAGAUCUAGUCUAGUCUUGACUGCAUU [Excl Tryptophan A V13] | 284
AUUUUUUUGUCAGGAUAUUAGUAUGCAUUUAGUUUGUUAGUGAUGUUGAUAUUUUGUUUAUGUAUUUAAGAAGGGAUUUAGCGGU [iiikmullin] | 217
AUCACAGUGAUGUUGUGAUAUGGUACAGAUACCAGACUAGUGCUAGUCCCUUGGCAGCUGUACUCAGCAGCACCACUAGCACUCG [Theo A Ex t6b] | 131
CGAGUGAUGUUCGUUCGUUUAUUUCUUUGACAGGAUAUGCGGAAACGCAGAAGGGUCACCUUUGAGUUAAAGGAAUUUACGUUAU [Ex FMN A 26] | 509
UUAAUAUUGUCGGCCGCCACUGUUUAGUAUUUUGUAUAAUCUAUUUCAAAGUGAUGUUUUGAUUCCAGGACCGGGACAUUUGAUA [JR_Nu_ExcTryptoB_Sub031] | 414
UGAUACCAGACUGAUACCAGCUAGUGAUGUUAGCUGAAAUCAGGGUCAAAGACCCUGUCUGGCCCUUGGCAGCAGUCUGGUAUCU [TheoBX 18 #SwitchBubble #StaticStem] | 72.3
GCGCGGGAGUGAUGUUCCAAGUGGUGUUAACGAGGACCGGUACGGCCGCCACUCGUUACGGCCGGGCCGUAGGAUACACUGGCGC [Same State - Tryptophan A (Freestyle 16)] | 242
GCCUAGCAGGGAAGGAGCGCCAUAUAAUUAAAAGGUAAUUAAUGAGUGAUGUUCAAAUAAUGGCAGGUAGGUCGCCCUGCUAGGC [KL-SSArg B10] | 277
AGACCACAAAGUGGUCAGUGUUCGCUGCAGCGAGGACCGGUACGGCCGCCACUCGCGAGUGAUGUUCGCGAGCGCAGCGAACACA [Omei KL Tryp A Exc A v5] | 68.1
GCGAACAUUCGCAGUGAUGUUGCGACGGAAGGAGCGCGUGAAAACGCAGGUAGGUCGCCGACAUACUUAAUUUUACAGUGUUCGC [Arginine A K4 29] | 191
UUGUGCAGCAAACGAGUGAUGUUCGACGAUACCAGCCUCGAUAGAGGCCCUUGGCAGCGUAAUAAUCACAGCCAAGGGCUGCACU [#SwitchBubble 4] | 535
GUGCAAAGCACCGGCACGAGCAGCCUAAAGGAGGAUAUGACGAAAGUCAGAAGGCCUAGUGAUGUUAGGCCUUGCUUGAGUCGAA [Omei KL FMN A Exc B v1] | 137

same assay, conditions: Eterna round: R107; input ligand: none

Sequence | apparent KD of K4 kissing-loop reporter [nM]
CGCAAGCAGCCAGUGAUGUUGGCCGCCUUGCGAGGACCGGUACGGCCGCCACUCGAAGGCGGCUACUGGUAAUCCGUCUAACGGA [Lareus] | 86.8
AAACGUUGGUCGGAUACCAGCUUGAUCGGAAAACGAUCUGCUGGAGUGAUGUUCCAAUAAAGCCCUUGGCAGCCGACCGACGAAA [MAT - Same State Theophlline B - Mod of Eli - D15] | 1030
GCCUACGAUGCAGGAUAUAGCUCGCGAGUGAUGUUCGCAGCUGUAUGGUAGUAAACUUCCACGUGUCUAGAAGGGCAUCGUAGGC | 91.6
AAAUUCUUUUUUUUAUUUAACUUUUCAGAAGGAGCGUGGUAGUACACAGGUAGGUCGCUGAAUUUUGGGCUAGUGAUGUUAGUUA [whbob_SS_Arginine_A_sa113] | 258
UCCGUUGCGGCGGCCGCCACUGACUUAUUGAUUAGGUUGCCAGUGAUGUUGGCCACCGGUCAAUACAGGACCGGGCCAUAGCGGG [Retive] | 259
GUCCCAGUGAUGUUGGUAGGCGAGCGGGAUACCAGCCAAGACUCAGGCCCUUGGCAGCCCACAUAUCCCACGUAGGGAUUAGCUC [Same State - Theophylline A (Freestyle 19)] | 223
AAUUCCUGUUAUGAUACCAGAAAUCACAGCAACCUGCCUACCUAGUGAUGUUAGGAGAAUUUCCCUUGGCAGCAUCGACUGAAGG [theeternabot_sameState_KL_Theo_B_38] | 145
UGACUGGACUGAAGGAGCGAGCGAGACAAAGUCUCGAAAAUUCAGUGAUGUUGAAAUAUAACUCAGGUAGGUCGCAGUCUAGUCU [ArgBS 4 #SwitchBubble #StaticStem] | 377
AAUAUACAGGGAAGGAGCGCCGUCCAGUGAUGUUGGAGUUAAAUACCAGUGAUGUUGGUUAGGCAGGUAGGUCGCCCUAAAGUAU [Exclusion Arginine B Gf 2] | 105
CGUGAAGACCAGAGGUGAUGUAUAGUAUCGCGAGGACCGGUACGGCCGCCACUCGUGAAGAGAAAGGAGUGAUGUUCCGUAAUGG [C12] | 312
AAACGUCGGAAGUGAUGUUGAUGACGUAGUAAGGAUAUUGGACGCGCAAGAAGGUACUGGCAAACUAAGGACAUCCUGGAUAUUC [theeternabot_exclusion_KL_FMN_A_47] | 232
GCACGUACCCGAAGGAGCGUGCAAGAAUCGUAGUGAUGUUACGGAGAGUGUCACGCCGUCGCACAGGUAGGUCGCGGGUACGUGC | 67.5
UAGACCUACUCAGGAUAUCCGCAGUGAUGUUGCGGUUGGCCUGAGCGACAUGAAAAUCUUACUAAAGGAGAAGGGAGAGGGUUAC [Ratiteus] | 94.3
UAUAUAUGAUGUGAUACCAGUGAAGAGCCAGUGAUGUUGGUAGAACUGGUAUAUAAAUAACACCCUUGGCAGCACAAUCACGUAU [whbob_Ex_Theo_B_sa97] | 170
UUCAGGUGUUCGGCCGCCACUCCAGUGAUGUUGGAGUGGCUUCACAAGGGCCAGGACAAUGUAGGGAGGACCGGGAAUAUCGCAG [Atvebeance] | 129
UGGAGUUGACGAAAAGUCAACUCCUGAGAAGGAGCGGACGAAAGUCCAGGUAGGUCGCUCACUAGCAGUGAUGUUGCUACAUAAA [#OpenEnded 2] | 219
